The target of the assay is 破伤风标准毒素 (破伤风毒素蛋白) (Clostridium tetani, UniProt P04958 2-1315).
Sequence of 破伤风标准毒素 (破伤风毒素蛋白) (P04958 2-457 limits assumed, chain 1 of 2): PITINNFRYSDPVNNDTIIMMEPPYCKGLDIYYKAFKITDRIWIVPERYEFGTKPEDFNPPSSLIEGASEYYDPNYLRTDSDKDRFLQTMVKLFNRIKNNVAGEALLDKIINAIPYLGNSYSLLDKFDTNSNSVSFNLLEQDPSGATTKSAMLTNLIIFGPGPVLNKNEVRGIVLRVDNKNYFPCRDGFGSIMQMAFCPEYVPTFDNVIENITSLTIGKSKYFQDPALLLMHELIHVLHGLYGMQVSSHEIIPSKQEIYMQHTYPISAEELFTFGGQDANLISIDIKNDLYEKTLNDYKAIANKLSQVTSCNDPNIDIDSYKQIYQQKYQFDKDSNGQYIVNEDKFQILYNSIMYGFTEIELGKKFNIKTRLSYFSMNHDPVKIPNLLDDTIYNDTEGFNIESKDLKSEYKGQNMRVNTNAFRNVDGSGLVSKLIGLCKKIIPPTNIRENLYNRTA
Sequence of 破伤风标准毒素 (破伤风毒素蛋白) (P04958 458-1315 limits assumed, chain 2 of 2): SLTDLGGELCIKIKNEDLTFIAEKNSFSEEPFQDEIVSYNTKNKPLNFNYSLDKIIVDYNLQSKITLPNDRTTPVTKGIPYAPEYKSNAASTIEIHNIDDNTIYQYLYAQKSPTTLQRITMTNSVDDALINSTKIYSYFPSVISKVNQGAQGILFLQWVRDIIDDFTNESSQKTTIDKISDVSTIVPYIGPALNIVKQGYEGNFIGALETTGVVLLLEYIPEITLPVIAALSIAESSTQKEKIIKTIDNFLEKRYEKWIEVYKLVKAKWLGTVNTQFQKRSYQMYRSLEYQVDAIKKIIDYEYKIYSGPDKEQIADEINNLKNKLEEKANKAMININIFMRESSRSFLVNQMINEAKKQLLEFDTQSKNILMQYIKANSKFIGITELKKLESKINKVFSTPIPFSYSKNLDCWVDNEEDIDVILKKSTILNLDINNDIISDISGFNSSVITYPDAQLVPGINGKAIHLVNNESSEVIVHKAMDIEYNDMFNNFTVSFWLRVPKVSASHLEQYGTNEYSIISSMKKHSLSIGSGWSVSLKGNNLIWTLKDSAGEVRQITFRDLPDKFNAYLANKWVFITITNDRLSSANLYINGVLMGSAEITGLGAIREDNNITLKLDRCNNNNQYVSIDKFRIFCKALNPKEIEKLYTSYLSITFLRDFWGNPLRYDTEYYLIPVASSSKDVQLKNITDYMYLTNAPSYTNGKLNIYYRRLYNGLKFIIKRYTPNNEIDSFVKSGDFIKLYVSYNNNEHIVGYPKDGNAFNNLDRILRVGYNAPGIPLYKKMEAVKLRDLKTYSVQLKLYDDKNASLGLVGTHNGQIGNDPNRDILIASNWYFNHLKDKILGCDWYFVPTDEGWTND

B1: TRN0011抗体 (全人源抗破伤风毒素中和抗体) (antibody, V domains shown)
VH: QVQLQESGAGLVKPSETLSLTCGVAGGPFTGSYLSWIRQPPGKGLEWIGEVSQSGSTSYNPSLKSRVTISVDTSKSQFSLKLSSVTAADTAVYYCARLTKHYINSAYWGQGTLVTVSS
VL: DIQMTQSPSILSASVGDRVTITCRASQIIGSWLAWYQQKPGKAPTLVIYKASRLDSGVPSRFSGTESGTEFTLTISSLQPDDFATYYCQQYNSYPYTFGQGTKLEIK
One may read the Kd as the equilibrium constant for the complex coming apart. A higher Kd goes with weaker binding. In general, koff refers to a measure of how fast the partners let go of each other. Higher therefore signals fast dissociation. By kon is commonly meant the second-order rate constant of association. High values mean fast association, low ones slow association. Turning to B1, binding was put at a Kd of 0.905 nM, the koff turned out to be 3.87e-05 s⁻¹ and the kon was 42700 M⁻¹ s⁻¹.

These data come from patent publication CN108218984A (ZHUHAI TRINOMAB BIOTECHNOLOGY CO LTD; GUANGZHOU TAINUODI …, dated 2018).
